The experiment concerns proteins that co-immunoprecipitated with DUX4-CTD constructs expressed in MB135 myoblasts. Nature of the experiment: LC-MS of proteins co-immunoprecipitated with DUX4-CTD (Table 1) and western validation. The format is binding, human. The arrangement: key to 4. mL1dL2 + Dox + IFNG / 4. + IFNG mix / 4. longCTD + Dox + IFNG / 3. + IFNg + Dox longCTD / 3. + Dox longCTD / 3. + IFNG longCTD: peptide-spectrum matches (PSMs) per protein. The note with it: kind of count not given; for 4. mL1dL2 + Dox + IFNG: LC-MS value per protein co-immunoprecipitated with DUX4-CTD construct mL1dL2 in MB135 myoblasts; for 4. + IFNG mix: LC-MS value per protein co-immunoprecipitated from MB135 myoblasts, + IFNG mix sample (no Dox). In short, it runs like this:
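FLAG-tagged DUX4-CTD expressed in doxycycline-induced MB135 myoblasts, some also IFNG-treated; nuclear lysates in pH 7.4 NP-40 IP buffer were pre-cleared, then anti-FLAG immunoprecipitated 3 h at 4 °C. For LC-MS, FLAG-peptide elution, in-gel trypsin digest, Orbitrap analysis; proteins with ≥2 PSMs in both experiments categorised and ranked by total PSMs.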

B1: AP2B1 (protein)
chain: TDSKYFTTNKKGEIFELKAELNNEKKEKRKEAVKKVIAAMTVGKDVSSLFPDVVNCMQTDNLELKKLVYLYLMNYAKSQPDMAIMAVNSFVKDCEDPNPLIRALAVRTMGCIRVDKITEYLCEPLRKCLKDEDPYVRKTAAVCVAKLHDINAQMVEDQGFLDSLRDLIADSNPMVVANAVAALSEISESHPNSNLLDLNPQNINKLLTALNECTEWGQIFILDCLSNYNPKDDREAQSICERVTPRLSHANSAVVLSAVKVLMKFLELLPKDSDYYNMLLKKLAPPLVTLLSGEPEVQYVALRNINLIVQKRPEILKQEIKVFFVKYNDPIYVKLEKLDIMIRLASQANIAQVLAELKEYATEVDVDFVRKAVRAIGRCAIKVEQSAERCVSTLLDLIQTKVNYVVQEAIVVIRDIFRKYPNKYESIIATLCENLDSLDEPDARAAMIWIVGEYAERIDNADELLESFLEGFHDESTQVQLTLLTAIVKLFLKKPSETQELVQQVLSLATQDSDNPDLRDRGYIYWRLLSTDPVTAKEVVLSEKPLISEETDLIEPTLLDELICHIGSLASVYHKPPNAFVEGSHGIHRKHLPIHHGSTDAGDSPVGTTTATNLEQPQVIPSQGDLLGDLLNLDLGPPVNVPQVSSMQMGAVDLLGGGLDSLVGQSFIPSSVPATFAPSPTPAVVSSGLNDLFELSTGIGMAPGGYVAPKAVWLPAVKAKGLEISGTFTHRQGHIYMEMNFTNKALQHMTDFAIQFNKNSFGVIPSTPLAIHTPLMPNQSIDVSLPLNTLGPVMKMEPLNNLQVAVKNNIDVFYFSCLIPLNVLFVEDGKMERQVFLATWKDIPNENELQFQIKECHLNADTVSSKLQNNNVYTIAKRNVEGQDMLYQSLKLTNGIWILAELRIQPGNPNYTLSLKCRAPEVSQYIYQVYDSILKN
For the molecule B1, the “4. mL1dL2 + Dox + IFNG” value turned out to be 1.

B2: PHGDH (protein)
chain: AFANLRKVLISDSLDPCCRKILQDGGLQVVEKQNLSKEELIAELQDCEGLIVRSATKVTADVINAAEKLQVVGRAGTGVDNVDLEAATRKGILVMNTPNGNSLSAAELTCGMIMCLARQIPQATASMKDGKWERKKFMGTELNGKTLGILGLGRIGREVATRMQSFGMKTIGYDPIISPEVSASFGVQQLPLEEIWPLCDFITVHTPLLPSTTGLLNDNTFAQCKKGVRVVNCARGGIVDEGALLRALQSGQCAGAALDVFTEEPPRDRALVDHENVISCPHLGASTKEAQSRCGEEIAVQFVDMVKGKSLTGVVNAQALTSAFSPHTKPWIGLAEALGTLMRAWAGSPKGTIQVITQGTSLKNAGNCLSPAVIVGLLKEASKQADVNLVNAKLLVKEAGLNVTTSHSPAAPGEQGFGECLLAVALAGAPYQAVGLVQGTTPVLQGLNGAVFRPEVPLRRDLPLLLFRTQTSDPAMLPTMIGLLAEAGVRLLSYQTSLVSDGETWHVMGISSLLPSLEAWKQHVTEAFQFHF
As to B2, the “4. mL1dL2 + Dox + IFNG” value worked out at 1.

B3: RTN4 (protein)
chain: MEDLDQSPLVSSSDSPPRPQPAFKYQFVREPEDEEEEEEEEEEDEDEDLEELEVLERKPAAGLSAAPVPTAPAAGAPLMDFGNDFVPPAPRGPLPAAPPVAPERQPSWDPSPVSSTVPAPSPLSAAAVSPSKLPEDDEPPARPPPPPPASVSPQAEPVWTPPAPAPAAPPSTPAAPKRRGSSGSVDETLFALPAASEPVIRSSAENMDLKEQPGNTISAGQEDFPSVLLETAASLPSLSPLSAASFKEHEYLGNLSTVLPTEGTLQENVSEASKEVSEKAKTLLIDRDLTEFSELEYSEMGSSFSVSPKAESAVIVANPREEIIVKNKDEEEKLVSNNILHNQQELPTALTKLVKEDEVVSSEKAKDSFNEKRVAVEAPMREEYADFKPFERVWEVKDSKEDSDMLAAGGKIESNLESKVDKKCFADSLEQTNHEKDSESSNDDTSFPSTPEGIKDRSGAYITCAPFNPAATESIATNIFPLLGDPTSENKTDEKKIEEKKAQIVTEKNTSTKTSNPFLVAAQDSETDYVTTDNLTKVTEEVVANMPEGLTPDLVQEACESELNEVTGTKIAYETKMDLVQTSEVMQESLYPAAQLCPSFEESEATPSPVLPDIVMEAPLNSAVPSAGASVIQPSSSPLEASSVNYESIKHEPENPPPYEEAMSVSLKKVSGIKEEIKEPENINAALQETEAPYISIACDLIKETKLSAEPAPDFSDYSEMAKVEQPVPDHSELVEDSSPDSEPVDLFSDDSIPDVPQKQDETVMLVKESLTETSFESMIEYENKEKLSALPPEGGKPYLESFKLSLDNTKDTLLPDEVSTLSKKEKIPLQMEELSTAVYSNDDLFISKEAQIRETETFSDSSPIEIIDEFPTLISSKTDSFSKLAREYTDLEVSHKSEIANAPDGAGSLPCTELPHDLSLKNIQPKVEEKISFSDDFSKNGSATSKVLLLPPDVSALATQAEIESIVKPKVLVKEAEKKLPSDTEKEDRSPSAIFSAELSKTSVVDLLYWRDIKKTGVVFGASLFLLLSLTVFSIVSVTAYIALALLSVTISFRIYKGVIQAIQKSDEGHPFRAYLESEVAISEELVQKYSNSALGHVNCTIKELRRLFLVDDLVDSLKFAVLMWVFTYVGALFNGLTLLILALISLFSVPVIYERHQAQIDHYLGLANKNVKDAMAKIQAKIPGLKRKAE
Take B3: the “4. + IFNG mix” value is reported as 5 and the “4. mL1dL2 + Dox + IFNG” value amounted to 5.

B4: AP2A1 (protein)
chain: MPAVSKGDGMRGLAVFISDIRNCKSKEAEIKRINKELANIRSKFKGDKALDGYSKKKYVCKLLFIFLLGHDIDFGHMEAVNLLSSNKYTEKQIGYLFISVLVNSNSELIRLINNAIKNDLASRNPTFMCLALHCIANVGSREMGEAFAADIPRILVAGDSMDSVKQSAALCLLRLYKASPDLVPMGEWTARVVHLLNDQHMGVVTAAVSLITCLCKKNPDDFKTCVSLAVSRLSRIVSSASTDLQDYTYYFVPAPWLSVKLLRLLQCYPPPEDAAVKGRLVECLETVLNKAQEPPKSKKVQHSNAKNAILFETISLIIHYDSEPNLLVRACNQLGQFLQHRETNLRYLALESMCTLASSEFSHEAVKTHIDTVINALKTERDVSVRQRAADLLYAMCDRSNAKQIVSEMLRYLETADYAIREEIVLKVAILAEKYAVDYSWYVDTILNLIRIAGDYVSEEVWYRVLQIVTNRDDVQGYAAKTVFEALQAPACHENMVKVGGYILGEFGNLIAGDPRSSPPVQFSLLHSKFHLCSVATRALLLSTYIKFINLFPETKATIQGVLRAGSQLRNADVELQQRAVEYLTLSSVASTDVLATVLEEMPPFPERESSILAKLKRKKGPGAGSALDDGRRDPSSNDINGGMEPTPSTVSTPSPSADLLGLRAAPPPAAPPASAGAGNLLVDVFDGPAAQPSLGPTPEEAFLSELEPPAPESPMALLADPAPAADPGPEDIGPPIPEADELLNKFVCKNNGVLFENQLLQIGVKSEFRQNLGRMYLFYGNKTSVQFQNFSPTVVHPGDLQTQLAVQTKRVAAQVDGGAQVQQVLNIECLRDFLTPPLLSVRFRYGGAPQALTLKLPVTINKFFQPTEMAAQDFFQRWKQLSLPQQEAQKIFKANHPMDAEVTKAKLLGFGSALLDNVDPNPENFVGAGIIQTKALQVGCLLRLEPNAQAQMYRLTLRTSKEPVSRHLCELLAQQF
Turning to B4, the “4. mL1dL2 + Dox + IFNG” value came out at 5.

B5: HAT1 (protein)
chain: AGFGAMEKFLVEYKSAVEKKLAEYKCNTNTAIELKLVRFPEDLENDIRTFFPEYTHQLFGDDETAFGYKGLKILLYYIAGSLSTMFRVEYASKVDENFDCVEADDVEGKIRQIIPPGFCTNTNDFLSLLEKEVDFKPFGTLLHTYSVLSPTGGENFTFQIYKADMTCRGFREYHERLQTFLMWFIETASFIDVDDERWHYFLVFEKYNKDGATLFATVGYMTVYNYYVYPDKTRPRVSQMLILTPFQGQGHGAQLLETVHRYYTEFPTVLDITAEDPSKSYVKLRDFVLVKLCQDLPCFSREKLMQGFNEDMVIEAQQKFKINKQHARRVYEILRLLVTDMSDAEQYRSYRLDIKRRLISPYKKKQRDLAKMRKCLRPEELTNQMNQIEISMQHEQLEESFQELVEDYRRVIERLAQE
B5: the “4. + IFNG mix” value is listed as 1 and the “4. mL1dL2 + Dox + IFNG” value was 10.

B6: S100A9 (protein)
chain: MTCKMSQLERNIETIINTFHQYSVKLGHPDTLNQGEFKELVRKDLQNFLKKENKNEKVIEHIMEDLDTNADKQLSFEEFIMLMARLTWASHEKMHEGDEGPGHHHKPGLGEGTP
Turning to B6, the “4. mL1dL2 + Dox + IFNG” value was determined as 2.

B7: SLC25A3 (protein)
chain: AVEEQYSCDYGSGRFFILCGLGGIISCGTTHTALVPLDLVKCRMQVDPQKYKGIFNGFSVTLKEDGVRGLAKGWAPTFLGYSMQGLCKFGFYEVFKVLYSNMLGEENTYLWRTSLYLAASASAEFFADIALAPMEAAKVRIQTQPGYANTLRDAAPKMYKEEGLKAFYKGVAPLWMRQIPYTMMKFACFERTVEALYKFVVPKPRSECSKPEQLVVTFVAGYIAGVFCAIVSHPADSVVSVLNKEKGSSASLVLKRLGFKGVWKGLFARIIMIGTLTALQWFIYDSVKVYFRLPRPPPPEMPESLKKKLGLTQ
As to B7, the “4. + IFNG mix” value is 3 and the “4. mL1dL2 + Dox + IFNG” value is given as 2.

B8: PRSS2 (protein)
chain: IVGGYICEENSVPYQVSLNSGYHFCGGSLISEQWVVSAGHCYKSAINSKLSGRGCEYHRIQVRLGEHNIEVLEGNEQFINAAKIIRHPKYNSRTLDNDILLIKLSSPAVINSRVSAISLPTAPPAAGTESLISGWGNTLSSGADYPDELQCLDAPVLSQAECEASYPGKITNNMFCVGFLEGGKDSCQGDSGGPVVSNGELQGIVSWGYGCAQKNRPGVYTKVYNYVDWIKDTIAANS
Consider B8, for which the “4. mL1dL2 + Dox + IFNG” value came to 1.

B9: P4HA1 (protein)
chain: HPGFFTSIGQMTDLIHTEKDLVTSLKDYIKAEEDKLEQIKKWAEKLDRLTSTATKDPEGFVGHPVNAFKLMKRLNTEWSELENLVLKDMSDGFISNLTIQRQYFPNDEDQVGAAKALLRLQDTYNLDTDTISKGNLPGVKHKSFLTAEDCFELGKVAYTEADYYHTELWMEQALRQLDEGEISTIDKVSVLDYLSYAVYQQGDLDKALLLTKKLLELDPEHQRANGNLKYFEYIMAKEKDVNKSASDDQSDQKTTPKKKGVAVDYLPERQKYEMLCRGEGIKMTPRRQKKLFCRYHDGNRNPKFILAPAKQEDEWDKPRIIRFHDIISDAEIEIVKDLAKPRLRRATISNPITGDLETVHYRISKSAWLSGYENPVVSRINMRIQDLTGLDVSTAEELQVANYGVGGQYEPHFDFARKDEPDAFKELGTGNRIATWLFYMSDVSAGGATVFPEVGASVWPKKGTAVFWYNLFASGEGDYSTRHAACPVLVGNKWVSNKWLHERGQEFRRPCTLSELE
For B9, the “4. + IFNG mix” value was 1 and the “4. mL1dL2 + Dox + IFNG” value was determined as 27.

For the origin of these results see patent publication US20250339531A1, “DUX4 POLYPEPTIDES AND NUCLEIC ACIDS FOR TREATING INFLAMMATORY AND AUTOIMMUNE CONDITIONS” (Fred Hutchinson Cancer Center, priority 2021, published 2025).
